Source: US5652340

Biological target: T1, SATB1 80 kDa deltaSATB1 (bacterially produced) (Homo sapiens) (UniProt Q01826)
T1 sequence: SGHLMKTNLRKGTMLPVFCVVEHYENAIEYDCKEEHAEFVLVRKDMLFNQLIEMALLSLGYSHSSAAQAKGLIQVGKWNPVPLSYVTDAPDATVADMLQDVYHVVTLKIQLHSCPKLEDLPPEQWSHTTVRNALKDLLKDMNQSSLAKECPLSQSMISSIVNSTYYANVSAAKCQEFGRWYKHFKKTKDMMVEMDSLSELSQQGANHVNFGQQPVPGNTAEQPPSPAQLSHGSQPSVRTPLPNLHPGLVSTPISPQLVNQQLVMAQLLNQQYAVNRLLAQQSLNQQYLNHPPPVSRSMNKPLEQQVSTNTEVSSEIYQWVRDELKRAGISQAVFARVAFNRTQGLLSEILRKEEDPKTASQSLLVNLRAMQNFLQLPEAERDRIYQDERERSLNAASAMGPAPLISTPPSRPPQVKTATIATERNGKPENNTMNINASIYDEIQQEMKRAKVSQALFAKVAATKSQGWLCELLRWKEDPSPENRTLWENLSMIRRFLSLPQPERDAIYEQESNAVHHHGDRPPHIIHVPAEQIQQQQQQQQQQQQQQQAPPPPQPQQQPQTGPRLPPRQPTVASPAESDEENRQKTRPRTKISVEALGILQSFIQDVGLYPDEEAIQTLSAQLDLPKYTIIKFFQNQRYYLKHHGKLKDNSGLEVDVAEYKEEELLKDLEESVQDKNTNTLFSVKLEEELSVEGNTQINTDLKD
Experiment: EMSA

TCTTTAATTTCTAATATATTTAGAATTC (double strand) [wild-type (25)2]
koff: 0.0167 s⁻¹
